Experimental data reported in patent US20230192890A1.

T1: Ala mutant SEQ ID NO: 27 (human)
T1 sequence (peptide): AENMDDQWMQDEMEIGY

T2: Ala mutant SEQ ID NO: 28 (human)
T2 sequence (peptide): EANMDDQWMQDEMEIGY

T3: Ala mutant SEQ ID NO: 29 (human)
T3 sequence (peptide): EEAMDDQWMQDEMEIGY

T4: Ala mutant SEQ ID NO: 30 (human)
T4 sequence (peptide): EENADDQWMQDEMEIGY

T5: Ala mutant SEQ ID NO: 31 (human)
T5 sequence (peptide): EENMADQWMQDEMEIGY

T6: Ala mutant SEQ ID NO: 33 (human)
T6 sequence (peptide): EENMDDAWMQDEMEIGY

T7: Ala mutant SEQ ID NO: 36 (human)
T7 sequence (peptide): EENMDDQWMADEMEIGY

T8: Ala mutant SEQ ID NO: 37 (human)
T8 sequence (peptide): EENMDDQWMQAEMEIGY

T9: Ala mutant SEQ ID NO: 38 (human)
T9 sequence (peptide): EENMDDQWMQDAMEIGY

T10: Ala mutant SEQ ID NO: 39 (human)
T10 sequence (peptide): EENMDDQWMQDEAEIGY

T11: Ala mutant SEQ ID NO: 40 (human)
T11 sequence (peptide): EENMDDQWMQDEMAIGY

T12: Ala mutant SEQ ID NO: 41 (human)
T12 sequence (peptide): EENMDDQWMQDEMEAGY

T13: Ala mutant SEQ ID NO: 42 (human)
T13 sequence (peptide): EENMDDQWMQDEMEIAY

T14: Ala mutant SEQ ID NO: 43 (human)
T14 sequence (peptide): EENMDDQWMQDEMEIGA

T15: Ala mutant having 3-amino acid substitution, SEQ ID NO: 44 (human)
T15 sequence (peptide): AAAMDDQWMQDEMEIGY

T16: Ala mutant having 3-amino acid substitution, SEQ ID NO: 46 (human)
T16 sequence (peptide): EENMDDAAAQDEMEIGY

T17: Ala mutant having 3-amino acid substitution, SEQ ID NO: 47 (human)
T17 sequence (peptide): EENMDDQWMAAAMEIGY

T18: Ala mutant having 3-amino acid substitution, SEQ ID NO: 48 (human)
T18 sequence (peptide): EENMDDQWMQDEAAAGY

T19: Ala mutant having 3-amino acid substitution, SEQ ID NO: 49 (human)
T19 sequence (peptide): EENMDDQWMQDEMEIAA

T20: TA0096 (peptide antigen corresponding to positions 340 to 356 of PAD4) (human)
T20 sequence (peptide): EENMDDQWMQDEMEIGY

B1: G8 (antibody, IgG1, V domains shown)
VH: AVTLDESGGGLQTPGGALSLVCKASGFTFSTYAMGWMRQAPGKGLEYVAAIRNDGSWTGYGAAVKGRATILRDNGQSTVRLQLSNLRAEDTGTYYCAKYTGSSGGSIGAWGHGTEVIVS
VL: ASTQPSSVSANLGGTVEITCSGGNRNYYYGWYQQKSPGSAPVTLIYANDKRPSNIPSRFSGSKSGSTGTLTITGVQAEDEAVYFCGTADTGKYVFGAGTTLTVL
B2: G9 (antibody, IgG1, V domains shown)
VH: B1 VH
VL: AVTQPASVSANLGGTVEITCSGGGRYYYGWYQQKSPGSAPVTVIYANDKRPSDIPSRFSGSKSGSTGTLTITGVQAEDEAVYFCGSAETSSYVFGAGTTLTVL

Columns and labels:
[1] = target: T1, Ala mutant SEQ ID NO: 27 (human); assay: ELISA, peptide on plate (10 ug/mL)
[2] = target: T2, Ala mutant SEQ ID NO: 28 (human); assay: ELISA, peptide on plate (10 ug/mL)
[3] = target: T3, Ala mutant SEQ ID NO: 29 (human); assay: ELISA, peptide on plate (10 ug/mL)
[4] = target: T4, Ala mutant SEQ ID NO: 30 (human); assay: ELISA, peptide on plate (10 ug/mL)
[5] = target: T5, Ala mutant SEQ ID NO: 31 (human); assay: ELISA, peptide on plate (10 ug/mL)
[6] = target: T6, Ala mutant SEQ ID NO: 33 (human); assay: ELISA, peptide on plate (10 ug/mL)
[7] = target: T7, Ala mutant SEQ ID NO: 36 (human); assay: ELISA, peptide on plate (10 ug/mL)
[8] = target: T8, Ala mutant SEQ ID NO: 37 (human); assay: ELISA, peptide on plate (10 ug/mL)
[9] = target: T9, Ala mutant SEQ ID NO: 38 (human); assay: ELISA, peptide on plate (10 ug/mL)
[10] = target: T10, Ala mutant SEQ ID NO: 39 (human); assay: ELISA, peptide on plate (10 ug/mL)
[11] = target: T11, Ala mutant SEQ ID NO: 40 (human); assay: ELISA, peptide on plate (10 ug/mL)
[12] = target: T12, Ala mutant SEQ ID NO: 41 (human); assay: ELISA, peptide on plate (10 ug/mL)
[13] = target: T13, Ala mutant SEQ ID NO: 42 (human); assay: ELISA, peptide on plate (10 ug/mL)
[14] = target: T14, Ala mutant SEQ ID NO: 43 (human); assay: ELISA, peptide on plate (10 ug/mL)
[15] = target: T15, Ala mutant having 3-amino acid substitution, SEQ ID NO: 44 (human); assay: ELISA, peptide on plate (10 ug/mL)
[16] = target: T16, Ala mutant having 3-amino acid substitution, SEQ ID NO: 46 (human); assay: ELISA, peptide on plate (10 ug/mL)
[17] = target: T17, Ala mutant having 3-amino acid substitution, SEQ ID NO: 47 (human); assay: ELISA, peptide on plate (10 ug/mL)
[18] = target: T18, Ala mutant having 3-amino acid substitution, SEQ ID NO: 48 (human); assay: ELISA, peptide on plate (10 ug/mL)
[19] = target: T19, Ala mutant having 3-amino acid substitution, SEQ ID NO: 49 (human); assay: ELISA, peptide on plate (10 ug/mL)
[20] = target: T20, TA0096 (peptide antigen corresponding to positions 340 to 356 of PAD4) (human); assay: ELISA, peptide on plate (10 ug/mL)
[21] = target: full-length recombinant mouse PAD4 (mouse) (UniProt Q9Z183); assay: ELISA, mouse PAD4 on plate, antibody 1 ug/mL
[22] = target: full-length recombinant mouse PAD4 (mouse) (UniProt Q9Z183); assay: ELISA, mouse PAD4 on plate, antibody 0.25 ug/mL
[23] = target: full-length recombinant mouse PAD4 (mouse) (UniProt Q9Z183); assay: ELISA, mouse PAD4 on plate, antibody 0.0625 ug/mL
[24] = target: full-length recombinant mouse PAD4 (mouse) (UniProt Q9Z183); assay: ELISA, mouse PAD4 on plate, antibody 0.015625 ug/mL
[25] = target: full-length recombinant mouse PAD4 (mouse) (UniProt Q9Z183); assay: ELISA, mouse PAD4 on plate, antibody 0.0002441 ug/mL
[26] = target: full-length recombinant mouse PAD4 (mouse) (UniProt Q9Z183); assay: ELISA, mouse PAD4 on plate, antibody 0.0009766 ug/mL
[27] = target: full-length recombinant mouse PAD4 (mouse) (UniProt Q9Z183); assay: ELISA, mouse PAD4 on plate, antibody 0.0039063 ug/mL
[28] = target: full-length recombinant mouse PAD4 (mouse) (UniProt Q9Z183); assay: ELISA, mouse PAD4 on plate, antibody 6.104E-05 ug/mL

Chain of full-length recombinant mouse PAD4 (mouse) (Q9Z183 whole entry): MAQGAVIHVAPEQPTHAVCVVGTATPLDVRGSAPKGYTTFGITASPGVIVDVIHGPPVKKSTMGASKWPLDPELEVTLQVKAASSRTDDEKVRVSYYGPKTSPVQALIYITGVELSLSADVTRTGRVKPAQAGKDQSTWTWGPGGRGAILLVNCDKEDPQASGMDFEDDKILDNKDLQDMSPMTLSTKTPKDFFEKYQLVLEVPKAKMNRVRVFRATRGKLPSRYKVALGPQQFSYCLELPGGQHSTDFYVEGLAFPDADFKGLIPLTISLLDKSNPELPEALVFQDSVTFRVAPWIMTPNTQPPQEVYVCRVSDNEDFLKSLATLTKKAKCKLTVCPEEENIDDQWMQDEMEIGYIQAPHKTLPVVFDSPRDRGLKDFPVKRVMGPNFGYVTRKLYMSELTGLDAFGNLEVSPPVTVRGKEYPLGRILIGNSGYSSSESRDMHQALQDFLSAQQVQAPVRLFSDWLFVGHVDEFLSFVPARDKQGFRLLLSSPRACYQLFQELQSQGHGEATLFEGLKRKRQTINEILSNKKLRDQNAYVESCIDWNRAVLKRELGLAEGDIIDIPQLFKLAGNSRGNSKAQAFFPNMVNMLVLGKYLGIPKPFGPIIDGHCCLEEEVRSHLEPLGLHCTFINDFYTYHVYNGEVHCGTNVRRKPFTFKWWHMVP

| Binder | absorbance 490 nm/630 nm [1] [OD] | absorbance 490 nm/630 nm [2] [OD] | absorbance 490 nm/630 nm [3] [OD] | absorbance 490 nm/630 nm [4] [OD] | absorbance 490 nm/630 nm [5] [OD] | absorbance 490 nm/630 nm [6] [OD] | absorbance 490 nm/630 nm [7] [OD] | absorbance 490 nm/630 nm [8] [OD] | absorbance 490 nm/630 nm [9] [OD] | absorbance 490 nm/630 nm [10] [OD] | absorbance 490 nm/630 nm [11] [OD] | absorbance 490 nm/630 nm [12] [OD] | absorbance 490 nm/630 nm [13] [OD] | absorbance 490 nm/630 nm [14] [OD] | absorbance 490 nm/630 nm [15] [OD] | absorbance 490 nm/630 nm [16] [OD] | absorbance 490 nm/630 nm [17] [OD] | absorbance 490 nm/630 nm [18] [OD] | absorbance 490 nm/630 nm [19] [OD] | absorbance 490 nm/630 nm [20] [OD] | further results |
| --- | --- | --- | --- | --- | --- | --- | --- | --- | --- | --- | --- | --- | --- | --- | --- | --- | --- | --- | --- | --- | --- |
| B1 | 1.96 | 1.94 | 1.91 | 1.93 | 1.85 | 1.98 | 1.92 | 1.88 | 1.91 | 1.88 | 1.89 | 1.85 | 1.86 | 1.92 | 1.9 | 0.178 | 1.86 | 1.88 | 1.86 | 1.88 | absorbance 490 nm/630 nm [21]: 2.26 OD; absorbance 490 nm/630 nm [22]: 2.25 OD; absorbance 490 nm/630 nm [23]: 2.22 OD; absorbance 490 nm/630 nm [24]: 2.25 OD; absorbance 490 nm/630 nm [25]: 0.205 OD; absorbance 490 nm/630 nm [26]: 0.555 OD; absorbance 490 nm/630 nm [27]: 1.42 OD; absorbance 490 nm/630 nm [28]: 0.122 OD |
| B2 | 1.93 | 1.96 | 1.94 | 2.03 | 1.48 | 1.98 | 1.87 | 1.88 | 1.96 | 1.87 | 1.88 | 1.89 | 1.85 | 1.88 | 1.92 | 0.131 | 1.85 | 1.89 | 1.92 | 1.85 | absorbance 490 nm/630 nm [21]: 2.3 OD; absorbance 490 nm/630 nm [22]: 2.25 OD; absorbance 490 nm/630 nm [23]: 2.24 OD; absorbance 490 nm/630 nm [24]: 2.21 OD; absorbance 490 nm/630 nm [25]: 0.181 OD; absorbance 490 nm/630 nm [26]: 0.542 OD; absorbance 490 nm/630 nm [27]: 1.39 OD; absorbance 490 nm/630 nm [28]: 0.079 OD |
